Test results reported in US20250289897A1 (Eli Lilly, published 2025).

How the values were obtained:
[1] = molecular target: T1, cynomolgus monkey LEPR, full length, on HEK293-STAT3Luc-cmLepR2 cells (Macaca fascicularis); experiment: flow cytometry on live HEK293-STAT3Luc-cmLepR2 cells, AF647 anti-human IgG; average of 4 runs
T1 construct: whole, on cells; also called cyno-LEPR; Macaca fascicularis LEPR

Rat LEPR-ECD-His = molecular target: T2, Rat LEPR-ECD-His (rat, UniProt Q62959 22-839); experiment: SPR (Biacore T200), antibody captured on Protein A/G chip, n = 1
T2 sequence: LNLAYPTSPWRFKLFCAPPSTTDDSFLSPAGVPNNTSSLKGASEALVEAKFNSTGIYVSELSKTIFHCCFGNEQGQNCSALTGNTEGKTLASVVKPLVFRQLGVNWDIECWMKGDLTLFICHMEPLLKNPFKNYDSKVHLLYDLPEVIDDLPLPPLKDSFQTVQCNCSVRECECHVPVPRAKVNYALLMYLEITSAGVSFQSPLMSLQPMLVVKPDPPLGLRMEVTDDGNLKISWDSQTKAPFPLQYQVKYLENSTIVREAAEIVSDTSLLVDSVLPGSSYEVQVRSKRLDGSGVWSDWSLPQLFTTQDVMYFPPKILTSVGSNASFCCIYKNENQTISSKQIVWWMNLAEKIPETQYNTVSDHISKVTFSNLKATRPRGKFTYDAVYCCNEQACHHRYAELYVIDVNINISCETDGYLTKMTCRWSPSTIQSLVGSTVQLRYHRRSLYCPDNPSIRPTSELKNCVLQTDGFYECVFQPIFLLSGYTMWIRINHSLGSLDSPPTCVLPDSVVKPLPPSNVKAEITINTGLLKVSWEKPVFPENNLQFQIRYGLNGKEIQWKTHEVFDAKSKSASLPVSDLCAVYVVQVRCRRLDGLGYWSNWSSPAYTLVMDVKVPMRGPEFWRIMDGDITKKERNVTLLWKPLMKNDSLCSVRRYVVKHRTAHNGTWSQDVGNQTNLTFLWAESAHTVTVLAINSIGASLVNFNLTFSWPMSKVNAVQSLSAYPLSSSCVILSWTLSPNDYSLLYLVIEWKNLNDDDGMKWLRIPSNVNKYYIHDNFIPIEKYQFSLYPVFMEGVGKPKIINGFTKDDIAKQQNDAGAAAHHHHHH

[2] = molecular target: T3, human LEPR, full length, on HEK293-STAT3Luc-hLepR1 cells (Homo sapiens, UniProt P48357 22-1165); experiment: cell-based or functional assay
T3 sequence: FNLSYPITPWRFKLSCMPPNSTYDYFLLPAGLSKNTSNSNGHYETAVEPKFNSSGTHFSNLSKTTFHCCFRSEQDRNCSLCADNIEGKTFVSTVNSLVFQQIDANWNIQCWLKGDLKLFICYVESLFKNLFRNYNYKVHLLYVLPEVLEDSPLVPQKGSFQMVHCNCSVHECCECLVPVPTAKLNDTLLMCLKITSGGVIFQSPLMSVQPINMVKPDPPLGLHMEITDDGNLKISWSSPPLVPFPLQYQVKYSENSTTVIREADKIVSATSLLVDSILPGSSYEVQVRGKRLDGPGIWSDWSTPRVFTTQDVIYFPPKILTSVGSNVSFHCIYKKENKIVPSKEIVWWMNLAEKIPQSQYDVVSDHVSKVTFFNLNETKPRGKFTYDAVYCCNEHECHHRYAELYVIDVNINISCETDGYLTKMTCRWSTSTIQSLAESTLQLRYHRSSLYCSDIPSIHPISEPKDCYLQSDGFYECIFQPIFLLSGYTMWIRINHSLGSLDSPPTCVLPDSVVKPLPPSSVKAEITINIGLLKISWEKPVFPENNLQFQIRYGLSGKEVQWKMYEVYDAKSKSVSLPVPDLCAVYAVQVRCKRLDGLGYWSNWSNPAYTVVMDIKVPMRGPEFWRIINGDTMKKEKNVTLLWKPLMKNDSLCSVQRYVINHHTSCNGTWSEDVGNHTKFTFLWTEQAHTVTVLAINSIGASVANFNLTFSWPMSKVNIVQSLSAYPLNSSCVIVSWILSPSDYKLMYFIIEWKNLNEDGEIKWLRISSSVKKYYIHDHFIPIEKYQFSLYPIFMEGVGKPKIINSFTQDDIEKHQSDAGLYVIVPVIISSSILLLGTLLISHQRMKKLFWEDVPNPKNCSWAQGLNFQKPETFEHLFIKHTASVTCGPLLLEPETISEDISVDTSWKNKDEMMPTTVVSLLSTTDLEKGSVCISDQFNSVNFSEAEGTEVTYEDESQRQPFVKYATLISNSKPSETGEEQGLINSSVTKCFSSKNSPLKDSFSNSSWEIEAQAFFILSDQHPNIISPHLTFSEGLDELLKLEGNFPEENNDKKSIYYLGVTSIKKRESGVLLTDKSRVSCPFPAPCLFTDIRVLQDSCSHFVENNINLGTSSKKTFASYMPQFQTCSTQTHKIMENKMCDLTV

[3] = molecular target: T4, human FcγRIIA_131R (CD32a) extracellular domain (human, UniProt P12318 34-217); experiment: SPR at 25 C, antibody captured on Protein A chip
T4 construct: extracellular domain
T4 sequence (looked up): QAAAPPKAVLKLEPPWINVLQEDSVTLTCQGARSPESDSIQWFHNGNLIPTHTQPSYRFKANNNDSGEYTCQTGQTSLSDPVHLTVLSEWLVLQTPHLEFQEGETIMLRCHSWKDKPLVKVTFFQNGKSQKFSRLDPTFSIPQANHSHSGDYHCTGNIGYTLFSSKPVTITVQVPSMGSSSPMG

[4] = molecular target: T3, human LEPR, full length, on …; experiment: cell-based or functional assay; remark: listed apart in the source
[5] = molecular target: T5, Recombinant LEPR extracellular domain fused to hIgG1-Fc (human LEPR ECD-TEV-Fc) (human); experiment: ELISA, plate coated with human LEPR ECD (SEQ ID NO:30) at 2 ug/mL, antibody titrated 1:3 from 50 ug/mL, goat anti-human kappa AP detection, OD560
T5 construct: The entry holds ECD, TEV site, human IgG1 Fc and a His tag in one chain; also called LEPR-Fc; hLEPR-TEV-hIgG1Fc

[6] = molecular target: T3, human LEPR, full length, on …; experiment: flow cytometry on live HEK293-STAT3Luc-hLepR1 cells, AF647 anti-human IgG; average of 4 runs

Binder	Bottom (gMFI) [1] [gMFI]	Top (gMFI) [1] [gMFI]	binding result (Rat LEPR-ECD-His)	EC50 (nM), pSTAT3 AlphaLISA, after pre-exposure to 30 nM Antibody A and wash-out [2] [nM]	EC50 (nM), pSTAT3 AlphaLISA, vehicle-exposed cells [2] [nM]	Top (%), pSTAT3 AlphaLISA against 30 nM leptin, vehicle-exposed cells [2] [%]	binding result [3]	Maximum RLU, pERK1/2 AlphaLISA (baseline 29762.5) [4] [RLU]	EC50 (read off the curve) [5] [µg/mL]	Bottom (gMFI) [6] [gMFI]	Top (gMFI) [6] [gMFI]	EC50 (nM), pSTAT3 AlphaLISA, after pre-exposure to 30 nM Antibody C and wash-out [2] [nM]	EC50 (nM), pSTAT3 AlphaLISA, after pre-exposure to 30 nM Antibody B and wash-out [2] [nM]
Antibody A (antibody, human IgG1, kappa, L234A L235A, IgG1 mAb) heavy: EVQLLESGGGLVQPGGSLRLSCAASGFTFSSFAMSWVRQAPGKGLEWVSAISGSGGSTYSADSVRGRFTISRDNSKNTLYLQMNSLRAEDTAVYYCAKDQGDWDFLFDYWGQGTLVTVSSASTKGPSVFPLAPSSKSTSGGTAALGCLVKDYFPEPVTVSWNSGALTSGVHTFPAVLQSSGLYSLSSVVTVPSSSLGTQTYICNVNHKPSNTKVDKRVEPKSCDKTHTCPPCPAPEAAGGPSVFLFPPKPKDTLYITREPEVTCVVVSVSHEDPEVKFNWYVDGVEVHNAKTKPREEQYNSTYRVVSVLTVLHQDWLNGKEYKCKVSNKALPAPIEKTISKAKGQPREPQVYTLPPSREEMTKNQVSLTCLVKGFYPSDIAVEWESNGQPENNYKTTPPVLDSDGSFFLYSKLTVDKSRWQQGNVFSCSVMHEALHNHYTQKSLSLSPGK light: DIQMTQSPSFLSASVGDRVTITCRASQGISSSLAWYQQKPGKAPKLLIYTASTLQSGVPSRFSGSGSGTEFTLTISSLQPEDFATYYCQQLIYYPFTFGQGTKVEIKRTVAAPSVFIFPPSDEQLKSGTASVVCLLNNFYPREAKVQWKVDNALQSGNSQESVTEQDSKDSTYSLSSTLTLSKADYEKHKVYACEVTHQGLSSPVTKSFNRGEC	254	12100	no binding (tested: LEPR-ECD tested up to 1000 nM)	0.36	0.331	68.9	no binding (tested: receptor ECD tested up to 10 µM)	86000	~0.06	131	2460	–	–
Antibody C (antibody, human IgG1, kappa, L234A L235A, V domains shown) VH: EVQLLESGGGLVQPGGSLRLSCAASGFTFSSFAMSWVRQAPGKGLEWVSAISGSGGSTYSADSVRGRFTISRDNSKNTLYLQMNSLRAEDTAVYYCAKDQGDWDFLFDYWGQGTLVTVSS VL: DIQMTQSPSFLSASVGDRVTITCRASQGISSSLAWYQQKPGKAPKLLIYTASTLQSGVPSRFSGSGSGTEFTLTISSLQPEDFATYYCQQLNYYPFSFGQGTKVEIKR	214	10800	no binding (tested: LEPR-ECD tested up to 1000 nM)	–	1.04	71.7	–	87000	~0.07	144	1850	1.14	–
Antibody B (antibody, human IgG1, kappa, L234A L235A, V domains shown) VH: EVQLLESGGGLVQPGGSLRLSCAASGFTFSSFAMSWVRQAPGKGLEWVSAISGSGGSTYSADSVRGRFTISRDNSKNTLYLQMNSLRAEDTAVYYCAKDQGDWDFLFDYWGQGTLVTVSS VL: DIQMTQSPSFLSASVGDRVTITCRVSQGISSSLAWYQQKPGKAPKLLIYTASTLQSGVPSRFSGSGSGTEFTLTISSLQPEDFATYYCQQLNYYPFTFGQGTKVEIKR	243	12100	no binding (tested: LEPR-ECD tested up to 1000 nM)	–	0.986	70.5	–	83400	~0.08	123	2940	–	1.06
